Test results published in patent US20240287172A1 (SCIRHOM, published 2024).

Columns and labels:
hiR1-FL-WT-T7 = molecular target: T1, hiR1-FL-WT-T7 (human, UniProt Q96CC6 1-855); assay: FACS on MEF-DKO cells
T1 construct: on MEF-DKO cells
T1 sequence: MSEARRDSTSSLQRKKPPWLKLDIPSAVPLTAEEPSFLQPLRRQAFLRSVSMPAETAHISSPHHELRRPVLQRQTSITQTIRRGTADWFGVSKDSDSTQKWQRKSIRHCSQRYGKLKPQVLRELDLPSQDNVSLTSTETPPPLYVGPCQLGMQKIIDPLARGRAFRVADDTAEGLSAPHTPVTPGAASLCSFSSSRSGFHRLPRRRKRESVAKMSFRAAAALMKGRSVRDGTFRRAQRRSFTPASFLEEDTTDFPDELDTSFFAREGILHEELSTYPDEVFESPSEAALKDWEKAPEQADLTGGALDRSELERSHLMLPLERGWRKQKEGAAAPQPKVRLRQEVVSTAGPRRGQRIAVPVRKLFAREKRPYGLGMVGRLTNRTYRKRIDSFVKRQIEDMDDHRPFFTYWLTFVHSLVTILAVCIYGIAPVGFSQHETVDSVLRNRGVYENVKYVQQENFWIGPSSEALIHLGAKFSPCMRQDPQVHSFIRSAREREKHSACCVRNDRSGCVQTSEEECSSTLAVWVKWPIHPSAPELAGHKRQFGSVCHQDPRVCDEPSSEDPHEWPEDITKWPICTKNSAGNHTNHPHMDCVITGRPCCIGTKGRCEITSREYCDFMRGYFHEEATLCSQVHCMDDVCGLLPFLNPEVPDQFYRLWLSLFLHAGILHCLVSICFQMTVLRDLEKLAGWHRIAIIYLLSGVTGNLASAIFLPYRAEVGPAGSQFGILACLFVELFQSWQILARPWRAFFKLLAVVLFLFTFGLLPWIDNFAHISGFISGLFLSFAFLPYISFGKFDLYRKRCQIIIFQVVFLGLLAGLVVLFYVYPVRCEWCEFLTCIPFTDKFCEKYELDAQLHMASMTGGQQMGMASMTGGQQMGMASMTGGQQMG

hiR2-FL-R543Q-T7 = molecular target: T2, hiR2-FL-R543Q-T7 (human, UniProt Q6PJF5 1-856); assay: FACS on MEF-DKO cells
T2 sequence: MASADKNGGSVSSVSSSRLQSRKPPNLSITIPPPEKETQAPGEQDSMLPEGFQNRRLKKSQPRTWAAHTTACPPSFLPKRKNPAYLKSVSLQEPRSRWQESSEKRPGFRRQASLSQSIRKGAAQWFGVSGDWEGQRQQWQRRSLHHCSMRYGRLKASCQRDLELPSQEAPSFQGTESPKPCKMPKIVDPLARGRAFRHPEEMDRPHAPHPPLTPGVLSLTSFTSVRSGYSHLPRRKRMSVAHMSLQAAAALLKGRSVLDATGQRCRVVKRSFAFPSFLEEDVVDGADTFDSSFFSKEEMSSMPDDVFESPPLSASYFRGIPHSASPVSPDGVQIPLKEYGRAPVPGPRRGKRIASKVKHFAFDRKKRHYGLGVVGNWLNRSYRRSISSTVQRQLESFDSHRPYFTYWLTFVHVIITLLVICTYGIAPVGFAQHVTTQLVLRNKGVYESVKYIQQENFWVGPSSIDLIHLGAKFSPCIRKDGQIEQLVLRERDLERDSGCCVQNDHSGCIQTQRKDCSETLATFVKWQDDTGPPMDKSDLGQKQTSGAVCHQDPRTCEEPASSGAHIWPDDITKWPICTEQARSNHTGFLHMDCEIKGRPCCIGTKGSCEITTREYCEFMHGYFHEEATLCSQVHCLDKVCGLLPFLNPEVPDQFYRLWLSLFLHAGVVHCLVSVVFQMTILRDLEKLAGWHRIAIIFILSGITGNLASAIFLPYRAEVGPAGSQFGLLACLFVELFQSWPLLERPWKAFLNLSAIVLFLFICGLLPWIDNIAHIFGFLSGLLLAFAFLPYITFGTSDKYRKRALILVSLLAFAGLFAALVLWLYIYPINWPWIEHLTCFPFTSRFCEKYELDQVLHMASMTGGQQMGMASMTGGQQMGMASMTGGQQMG

hiR2-FL-A560S-T7 = molecular target: T3, hiR2-FL-A560S-T7 (human, UniProt Q6PJF5 1-856); assay: FACS, MEF-DKO cells, 3 µg/ml
T3 sequence: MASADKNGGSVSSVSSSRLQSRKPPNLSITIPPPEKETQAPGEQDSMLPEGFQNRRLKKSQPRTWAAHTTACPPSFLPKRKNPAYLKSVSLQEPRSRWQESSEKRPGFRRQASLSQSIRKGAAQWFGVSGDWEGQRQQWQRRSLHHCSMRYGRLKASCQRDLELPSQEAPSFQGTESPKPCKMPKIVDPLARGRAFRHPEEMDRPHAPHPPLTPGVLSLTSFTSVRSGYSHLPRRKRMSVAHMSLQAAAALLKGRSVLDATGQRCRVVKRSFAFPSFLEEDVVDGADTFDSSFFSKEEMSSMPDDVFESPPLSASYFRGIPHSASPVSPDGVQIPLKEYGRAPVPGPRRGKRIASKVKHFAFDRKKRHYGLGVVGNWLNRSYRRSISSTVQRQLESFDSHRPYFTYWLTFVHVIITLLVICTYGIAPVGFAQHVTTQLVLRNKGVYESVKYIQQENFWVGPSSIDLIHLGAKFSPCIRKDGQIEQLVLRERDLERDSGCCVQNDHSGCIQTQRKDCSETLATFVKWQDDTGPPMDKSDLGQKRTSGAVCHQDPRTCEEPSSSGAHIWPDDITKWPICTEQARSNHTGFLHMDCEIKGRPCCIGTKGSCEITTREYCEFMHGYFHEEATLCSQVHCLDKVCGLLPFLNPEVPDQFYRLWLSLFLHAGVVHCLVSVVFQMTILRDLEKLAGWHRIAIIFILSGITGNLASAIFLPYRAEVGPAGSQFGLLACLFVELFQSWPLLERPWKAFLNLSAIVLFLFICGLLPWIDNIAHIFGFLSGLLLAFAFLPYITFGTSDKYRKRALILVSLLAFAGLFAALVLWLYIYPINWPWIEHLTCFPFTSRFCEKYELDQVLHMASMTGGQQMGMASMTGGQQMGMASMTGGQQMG

B1: antibody 16 (antibody, V domains shown)
VH: QVTLKESGPGILQPSQTLSLTCSFSGFSLSTFALGVGWIRQPSGRGLEWLAHIWWDDDKYYNPALKSRLTISKDTSKNHVFLKIANVDTADTATYYCARITTYYYGMDYWGQGTSVTVSS
VL: DIVLSQSPATLSVTPGDSVSLFCRASQSIGNHLHWYQQESHASPRLLIKYASQSISGIPSRFSGSGSGTDFTLSINSVETEDFGMYFCQQSYNWPLTFGAGTKLELK
notes: mouse IgG, kappa light chain; also called clone #16; purified antibody 16
binding result (hiR1-FL-WT-T7): no binding (tested: 3 µg/ml)

B2: antibody 34 (antibody, V domains shown)
VH: QVTLKESGPGILQPSQTLSLTCSFSGFSLSTFSLGVGWIRQSSGKGLEWLAHIWWDDEKYYNPALKSRLTISKDTSKNQVFLKIANVDAADTATYYCARAYYSKSYYALDYWGQGTSVTVSS
VL: DIQMTQSPSSLSASLGERVSLTCRASQEISGYLSWLQQKPDGTIKRLIYAASTLDSGVPKRFSGSRSGSDYSLAISSLESEDFADYYCLQYANFPFTFGSGTKLEIK
notes: mouse IgG, kappa light chain; also called clone #34; purified antibody 34
binding result (hiR2-FL-R543Q-T7): no binding (tested: 3 µg/ml)

B3: antibody 48 (antibody, V domains shown)
VH: QVQLQQSGTELVRPGTSVKVSCKASGYAFTNYLIEWVKQRPGQGLEWIGVINPGSGFTKYNEKFKGKATLTADKSSSTVYMHLSSLTSEDSAVYFCARGLYRAMDYWGQGTSVTVSS
VL: DIQMTQSPASQSASLGESVTITCLASQTIATWLAWYQQKPGKSPQLLIYGATTLADGVPSRFSGGGSGTKFSFKISSLQAEDFVSYYCQQLYSTPYTFGGGTKLEIK
notes: mouse IgG, kappa light chain; also called clone #48; purified antibody 48
loss of binding vs wild type (hiR2-FL-A560S-T7): ≥ 30%

B4: antibody 50 (antibody, V domains shown)
VH: QVQLQQSGAELVRPGASVKVSCKASGYAFSNYLIEWVKQRPGQGLEWIGVINPGSGFTKYNEKFKGKATLTADKSSSTAYMQLSSLTSEDSAVYFCARGLYRAMDYWGQGTSVTVSS
VL: DIQMTQSPASQSASLGESVTITCLASQTIGTWLAWYQQKPGKSPQLLIYAAASLADGVPSRFSGGGSGTKFSFKISSLQAEDFVNYYCQQIYSTPYTFGGGTKLEIK
notes: mouse IgG, kappa light chain; also called clone #50; purified antibody 50
loss of binding vs wild type (hiR2-FL-A560S-T7): ≥ 30%

B5: antibody 5 (antibody, V domains shown)
VH: QVTLKESGPGILQPSQTLSLTCSFSGFSLSTFGMGVGWIRQPSGKGLEWLAHIWWDDEKYYNSALKSRLTISKATSKNQAFLKIANVDTADTATYYCARISNYGSNYWYFNVWGTGTTVTVSS
VL: QVVLTQSPALMSASPGEKVTMTCSAGSSVSCMYWYQQKPGSSPRVLIYDTSNLASGVPARFTGSGSGTSYSLTISRMEAEDAASYYCQQWNSYPLTFGAGTKLELK
notes: mouse IgG, kappa light chain; also called clone #5; purified antibody 5
binding result (hiR1-FL-WT-T7): no binding (tested: 3 µg/ml)
binding result (hiR2-FL-R543Q-T7): no binding (tested: 3 µg/ml)

B6: antibody 43 (antibody, V domains shown)
VH: QVALKESGPGILQPSQTLSLTCSFSGFSLSTFGMGVGWIRQSSGKGLEWLANIWWDDDKYYNPALKSRLTISKDASKNQAFLKIANVDTADTATYYCARIGNYGSNYWYFDVWGTGTTVTVSS
VL: QIVLTQSPAIMSASPGERVTMTCSANSRISYMYWYQQKPGSSPRLLIYDTSNLASGVPVRFSGSGSGTSYSLTISRMEAEDAATYNCQQWSSYPLTFGAGTKLELK
notes: mouse IgG, kappa light chain; also called clone #43; purified antibody 43
binding result (hiR2-FL-R543Q-T7): no binding (tested: 3 µg/ml)

B7: antibody 42 (antibody, V domains shown)
VH: QVTLKESGPGILQPSQTLSLTCSLSGFSLSTFGRGVGWIRQPSGKGLEWLAHIWWDDEKYYNPALKSRLTISKDTSKNQVFLRIANVDTADTATYYCARIQNYGSNYWYFDVWGTGTTVTVSS
VL: LIVLTQSPAIMSASPGEKVTMTCGATSRISYMFWYQQKPGSSPRVLIYDTSNLASGVPVRFSGSGSGTSYSLTISRVEAEDVATYYCQQWNSYPLTFGAGTKLELK
notes: mouse IgG, kappa light chain; also called clone #42; purified antibody 42
loss of binding vs wild type (hiR2-FL-A560S-T7): ≥ 30%
binding result (hiR2-FL-R543Q-T7): no binding (tested: 3 µg/ml)

B8: antibody 22 (antibody, V domains shown)
VH: QVTLKESGPGILQPSQTLSLTCSFSGFSLSTFGMGVGWIRQPSGKGLEWLAHIWWDDEKYYNSALKSRLTISKATSKNQVFLKIANVDTADTATYYCARISNYGSNYWYFNVWGTGTTVTVSS
VL: QVVLTQSPALMSASPGEKVTMTCSAGSSVSYMYWYQQKPGSSPRVLIYDTSNLASGVPARFTGSGSGTSYSLTISRMEAEDAATYYCQQWNSYPLTFGAGTKLELK
notes: mouse IgG, kappa light chain; also called clone #22; purified antibody 22
binding result (hiR1-FL-WT-T7): no binding (tested: 3 µg/ml)
